We go through 10 molecules from EP4775675A1 (Shanghai Hongcheng Biopharmaceutical Co., Ltd., dated 2026).

As usually defined, the EC50 is the concentration that produces a half-maximal response. Broadly, the Kd is the concentration at which binding is half-saturated. Usually koff stands for the rate constant with which the complex falls apart. By kon is commonly meant the rate constant with which the complex forms.

Experiment [1] addresses T1, human BDCA-2 on cells (Jurkat-hBDCA-2 cells; human pDCs; human PBMCs) (human, UniProt Q8WTT0 1-213).
T1 construct: whole, on cells; also called CD303; CLEC4C
T1 sequence (looked up): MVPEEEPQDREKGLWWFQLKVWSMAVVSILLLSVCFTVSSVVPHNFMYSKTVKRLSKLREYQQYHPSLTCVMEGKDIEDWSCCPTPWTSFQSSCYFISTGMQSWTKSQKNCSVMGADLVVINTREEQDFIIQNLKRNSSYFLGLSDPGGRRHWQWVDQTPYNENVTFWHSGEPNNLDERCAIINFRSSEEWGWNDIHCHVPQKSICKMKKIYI
The experiment is described as follows: flow cytometry on Jurkat-hBDCA-2 cells.

Experiment [2] addresses T2, cynomolgus monkey BDCA-2 on cells (Jurkat-cynoBDCA-2 cells; cynomolgus monkey pDCs) (cynomolgus monkey, UniProt A0A2K5UWP4 1-212).
T2 construct: whole, on cells
T2 sequence: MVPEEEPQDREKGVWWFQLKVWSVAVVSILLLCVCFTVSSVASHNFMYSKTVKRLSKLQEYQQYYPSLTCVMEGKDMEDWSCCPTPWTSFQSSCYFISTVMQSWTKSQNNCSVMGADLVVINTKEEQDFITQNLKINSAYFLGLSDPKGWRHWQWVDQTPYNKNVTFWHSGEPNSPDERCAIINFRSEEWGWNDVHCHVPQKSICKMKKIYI
Nature of the experiment: flow cytometry on Jurkat-cynoBDCA-2 cells. In general terms: In flow cytometry, cells or beads pass a laser one at a time.

The target of experiment [3] is T1, human BDCA-2 on cells (Jurkat-hBDCA-2 …). The experiment is described as follows: cell-based or functional assay.
A further experiment has as its target T3, human CLEC4A (human, UniProt Q9UMR7 70-237, limits assumed).
T3 sequence (looked up): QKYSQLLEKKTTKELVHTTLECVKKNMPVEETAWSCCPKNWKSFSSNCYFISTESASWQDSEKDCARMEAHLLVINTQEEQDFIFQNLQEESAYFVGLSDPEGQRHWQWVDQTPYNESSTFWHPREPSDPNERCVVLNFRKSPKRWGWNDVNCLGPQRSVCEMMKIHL
Nature of the experiment: ELISA, coated protein 1 µg/ml. In general terms: An ELISA detects its analyte on a solid surface through an enzyme-linked reagent.

The target of another experiment is T4, human CLEC4E (human, UniProt Q9ULY5 41-219, limits assumed).
T4 sequence (looked up): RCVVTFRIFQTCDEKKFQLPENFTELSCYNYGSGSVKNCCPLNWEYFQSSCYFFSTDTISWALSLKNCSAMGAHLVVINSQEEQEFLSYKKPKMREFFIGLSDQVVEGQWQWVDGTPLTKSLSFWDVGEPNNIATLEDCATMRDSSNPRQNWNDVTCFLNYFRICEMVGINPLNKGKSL
Nature of the experiment: ELISA, coated protein 1 µg/ml.

For a further experiment, the target named is T5, human CLEC4D (human, UniProt Q8WXI8 39-215, limits assumed).
T5 sequence (looked up): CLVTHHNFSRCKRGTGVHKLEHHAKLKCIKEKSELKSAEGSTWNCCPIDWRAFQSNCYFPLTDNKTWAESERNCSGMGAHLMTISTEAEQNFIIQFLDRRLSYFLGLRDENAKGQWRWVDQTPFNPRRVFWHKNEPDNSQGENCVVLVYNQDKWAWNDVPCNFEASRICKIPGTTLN
The experiment is described as follows: ELISA, coated protein 1 µg/ml.

The next experiment has as its target T6, human CLEC6A (human, UniProt Q6EIG7 42-209, limits assumed).
T6 sequence (looked up): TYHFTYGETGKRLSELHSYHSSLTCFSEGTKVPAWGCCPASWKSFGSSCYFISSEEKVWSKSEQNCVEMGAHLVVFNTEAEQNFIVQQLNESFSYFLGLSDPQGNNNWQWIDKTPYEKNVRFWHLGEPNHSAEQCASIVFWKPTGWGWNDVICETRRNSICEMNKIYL
Nature of the experiment: ELISA, coated protein 1 µg/ml.

In experiment [4] the target is T7, Human BDCA-2 protein (soluble, Octet analyte) (human, UniProt Q8WTT0 45-213, limits assumed).
T7 construct: Soluble protein used as analyte in BLI
T7 sequence (looked up): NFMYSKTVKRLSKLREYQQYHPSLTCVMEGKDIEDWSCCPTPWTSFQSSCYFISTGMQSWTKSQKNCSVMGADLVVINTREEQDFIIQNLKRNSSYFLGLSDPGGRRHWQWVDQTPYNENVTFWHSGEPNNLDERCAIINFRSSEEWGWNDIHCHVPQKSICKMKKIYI
The experiment is described as follows: BLI (Octet Red96e), antibody on anti-human IgG sensor, human BDCA-2 protein in solution.

B1: 164C11B8_hzH1L1_hIgG1 (antibody, V domains shown)
VH: EVQLLESGGGLVQPGGSLRLSCAASGFTFSTYTMSWVRQAPGKGLEWVSTINSGGDNTYYPDSVKGRFTISRDNSKNTLYLQMNSLRAEDTAVYYCATYRPYYYGSVLDYWGQGTTVTVSS
VL: DIVMTQSPDSLAVSLGERATINCKASQSVDYDGNSYVNWYQQKPGQPPKLLIYGASNLESGVPDRFSGSGSGTDFTLTISSLQAEDVAVYYCQQSDEDPWTFGGGTKVEIKR
As to B1, the EC50 in experiment [1] worked out at 0.0429 µg/mL; in experiment [2], 0.158 µg/mL.

B2: 164C11B8_hzH4L1_hIgG1 (antibody, V domains shown)
VH: EVQLLESGGGLVQPGGSLRLSCAASGITFSTYTMSWVRQAPGKRLEWVATINSGGDNTYYPDSVKGRFTISRDNSKNTLYLQMNSLRAEDTAVYYCATYRPYYYGSVLDYWGQGTTVTVSS
VL: DIVMTQSPDSLAVSLGERATINCKASQSVDYDGNSYVNWYQQKPGQPPKLLIYGASNLESGVPDRFSGSGSGTDFTLTISSLQAEDVAVYYCQQSDEDPWTFGGGTKVEIKR
Turning to B2, the values for the EC50 in experiment [1] and in experiment [2] were 0.191 µg/mL and 0.31 µg/mL, respectively.

B3: 164C11B8_hzH3L1_hIgG1 (antibody, V domains shown)
VH: EVQLLESGGGLVQPGGSLRLSCAASGITFSTYTMSWVRQAPGKGLEWVATINSGGDNTYYPDSVKGRFTISRDNSKNTLYLQMNSLRAEDTAVYYCATYRPYYYGSVLDYWGQGTTVTVSS
VL: DIVMTQSPDSLAVSLGERATINCKASQSVDYDGNSYVNWYQQKPGQPPKLLIYGASNLESGVPDRFSGSGSGTDFTLTISSLQAEDVAVYYCQQSDEDPWTFGGGTKVEIKR
As for B3, a half-maximal effect in experiment [1] (EC50) was put at 0.0675 µg/mL.

B4: 164C11B8_hzH2L1_hIgG1 (antibody, V domains shown)
VH: EVQLLESGGGLVQPGGSLRLSCAASGFTFSTYTMSWVRQAPGKGLEWVATINSGGDNTYYPDSVKGRFTISRDNSKNTLYLQMNSLRAEDTAVYYCATYRPYYYGSVLDYWGQGTTVTVSS
VL: DIVMTQSPDSLAVSLGERATINCKASQSVDYDGNSYVNWYQQKPGQPPKLLIYGASNLESGVPDRFSGSGSGTDFTLTISSLQAEDVAVYYCQQSDEDPWTFGGGTKVEIKR
As to B4, the EC50 in experiment [1] is 0.104 µg/mL; in experiment [2] it was 0.252 µg/mL.

B5: 17G6A2_hzH2L5_hIgG1 (antibody, V domains shown)
VH: EVQLVESGGGLVKPGGSLRLSCAASGFTFSSYGMSWVRQAPGKGLEWVATISSGDSYTYYPDSVKGRFTISRDNAKNSLYLQMNSLRAEDTAVYYCARQLYYSYGYYFDYWGQGTTVTVSS
VL: DIVLTQSPASLAVSPGQRATITCRASESVSFHGTHLMHWYQQKPGQPPKLLIYAASNLESGVPARFSGSGSGTDFTLTINPVEAEDTANYYCQQSIEDPPTFGGGTKVEIKR
notes: Humanized, human IgG1/kappa (hzVH02 + hzVL05)
As for B5, in experiment [3], the “EC50, inhibition of CpGA-induced type I interferon (IFNα) production in human PBMC cells” value (“EC50, inhibition” for short) was determined as 1.4 ng/mL. The binding result in the experiment with human CLEC4A, with human CLEC4E, with human CLEC4D and with human CLEC6A was “no binding (tested: 10 µg/ml)” in each case. For the same molecule, the figures for the 50% effective concentration (EC50) in experiment [1] and in experiment [2] were 0.18 µg/mL and 0.0943 µg/mL, respectively. In addition, in experiment [4], binding was put at a Kd of 3.2 nM. Besides, in experiment [4], the koff was 0.000567 s⁻¹. The kon in experiment [4] is 176000 M⁻¹ s⁻¹.

B6: 17G6A2_hzH3L5_hIgG1 (antibody, V domains shown)
VH: EVQLVESGGGLVKPGGSLRLSCAASGFTFSSYGMSWVRQAPGKRLEWVATISSGDSYTYYPDSVKGRFTISRDNAKNSLYLQMNSLRAEDTAVYYCARQLYYSYGYYFDYWGQGTTVTVSS
VL: DIVLTQSPASLAVSPGQRATITCRASESVSFHGTHLMHWYQQKPGQPPKLLIYAASNLESGVPARFSGSGSGTDFTLTINPVEAEDTANYYCQQSIEDPPTFGGGTKVEIKR
notes: Humanized, human IgG1/kappa (hzVH03 + hzVL05)
For B6, in experiment [3], the “EC50, inhibition” value was found to be 1.4 ng/mL. Further, the binding result with human CLEC4A, with human CLEC4E, with human CLEC4D and in the experiment with human CLEC6A was “no binding (tested: 10 µg/ml)” in each case. Further, the EC50 in experiment [1] worked out at 0.066 µg/mL; in experiment [2] it was 0.101 µg/mL.

B7: 17G6A2_hzH3L8_hIgG1 (antibody, V domains shown)
VH: EVQLVESGGGLVKPGGSLRLSCAASGFTFSSYGMSWVRQAPGKRLEWVATISSGDSYTYYPDSVKGRFTISRDNAKNSLYLQMNSLRAEDTAVYYCARQLYYSYGYYFDYWGQGTTVTVSS
VL: DIVLTQSPASLAVSPGQRATITCRASESVSFHGTHLMHWYQQKPGQPPKLLIYAASNLESGVPARFSGSGSETDFTLTINPVEANDAANYYCQQSIEDPPTFGGGTKVEIKR
notes: Humanized, human IgG1/kappa (hzVH03 + hzVL08)
In the case of B7, the “EC50, inhibition” value in experiment [3] stood at 1.1 ng/mL. Further, the binding result with human CLEC4A, with human CLEC4E, in the experiment with human CLEC4D and in the experiment with human CLEC6A was “no binding (tested: 10 µg/ml)” each time. The EC50 in experiment [1] worked out at 0.0456 µg/mL; in experiment [2], 0.0688 µg/mL.

B8: 17G6A2_hzH3L6_hIgG1 (antibody, V domains shown)
VH: EVQLVESGGGLVKPGGSLRLSCAASGFTFSSYGMSWVRQAPGKRLEWVATISSGDSYTYYPDSVKGRFTISRDNAKNSLYLQMNSLRAEDTAVYYCARQLYYSYGYYFDYWGQGTTVTVSS
VL: DIVLTQSPASLAVSPGQRATITCRASESVSFHGTHLMHWYQQKPGQPPKLLIYAASNLESGVPARFSGSGSGTDFTLTINPVEANDAANYYCQQSIEDPPTFGGGTKVEIKR
notes: Humanized, human IgG1/kappa (hzVH03 + hzVL06)
Turning to B8, in experiment [3], the “EC50, inhibition” value turned out to be 1.7 ng/mL. In addition, the binding result with human CLEC4A, with human CLEC4E, with human CLEC4D and with human CLEC6A was “no binding (tested: 10 µg/ml)” each time. Also, the EC50 turned out to be 0.0831 µg/mL in experiment [1] and 0.0663 µg/mL in experiment [2].

B9: 17G6A2_hzH1L8_hIgG1 (antibody, V domains shown)
VH: EVQLVESGGGLVKPGGSLRLSCAASGFTFSSYGMSWVRQAPGKGLEWVSTISSGDSYTYYPDSVKGRFTISRDNAKNSLYLQMNSLRAEDTAVYYCARQLYYSYGYYFDYWGQGTTVTVSS
VL: DIVLTQSPASLAVSPGQRATITCRASESVSFHGTHLMHWYQQKPGQPPKLLIYAASNLESGVPARFSGSGSETDFTLTINPVEANDAANYYCQQSIEDPPTFGGGTKVEIKR
notes: Humanized, human IgG1/kappa (hzVH01 + hzVL08); also called 17G6A2_hzHL8_hIgG1
In the case of B9, the “EC50, inhibition” value in experiment [3] was 1.1 ng/mL. The binding result with human CLEC4A, in the experiment with human CLEC4E, in the experiment with human CLEC4D and with human CLEC6A was “no binding (tested: 10 µg/ml)” in each case. Besides, the EC50 in experiment [1] stood at 0.0442 µg/mL; in experiment [2] it was 0.0781 µg/mL. For the same molecule, the Kd in experiment [4] was determined as 6.3 nM. Also, in experiment [4], the koff was found to be 0.000872 s⁻¹. Moreover, the kon in experiment [4] was determined as 138000 M⁻¹ s⁻¹.

B10: 17G6A2_hzH3L7_hIgG1 (antibody, V domains shown)
VH: EVQLVESGGGLVKPGGSLRLSCAASGFTFSSYGMSWVRQAPGKRLEWVATISSGDSYTYYPDSVKGRFTISRDNAKNSLYLQMNSLRAEDTAVYYCARQLYYSYGYYFDYWGQGTTVTVSS
VL: DIVLTQSPASLAVSPGQRATITCRASESVSFHGTHLMHWYQQKPGQPPKLLIYAASNLESGVPARFSGSGSETDFTLTINPVEAEDTANYYCQQSIEDPPTFGGGTKVEIKR
notes: Humanized, human IgG1/kappa (hzVH03 + hzVL07)
In the case of B10, in experiment [3], the “EC50, inhibition” value came out at 1.1 ng/mL. The binding result with human CLEC4A, with human CLEC4E, in the experiment with human CLEC4D and in the experiment with human CLEC6A was “no binding (tested: 10 µg/ml)” each time. Moreover, the EC50 in experiment [1] was 0.0583 µg/mL; in experiment [2], 0.0975 µg/mL.
